In article PMC11722443:

Target: Paxillin (PXN) N-domain, residues 1-311 (human) (UniProt P49023)
Assay: NMR titration

Focal adhesion targeting (FAT) domain of focal adhesion kinase (FAK) (domain or fragment)
effective KD of the LD2 motif: 7 mM
